Measurements taken from patent publication US11160866B2, “Biomaterials for delivery of blood extracts and methods of using same” (Mosaic Biosciences, Inc., priority 2012, dated 2021).

system: whole blood; test: PDGF release in ACD-anticoagulated whole blood treated with activators (Example 10); format: cell-based, human; conditions: after 60 minutes
Procedure: Whole blood was collected from a healthy volunteer by a certified phlebotomist into a 8.5 mL ACD-containing Vacutainer. 375 ul of 0.167 mM PAR1-AP in ultrapure water or 200 ul of 0.1 unit/microliter of thrombin (Zymogenetics) were injected into the vacutainers via a sterile 1 mL syringe; samples were gently mixed by inverting 10 times and incubated at ambient temperature for specified time. The samples were then centrifugated at 2,380×g for 5 minutes at ambient temperatures and ˜3 mL clear supernatants were collected from the top of each sample and transferred into sterile 15 mL conical tubes. Concentration of PDGF-BB in each sample was determined by ELISA (Quantikine kit, R&D Systems) according to the manufacturer's protocol.

| Molecule | Signs of coagulation |
| --- | --- |
| Nc1ncnc2c1ncn2[C@@H]1O[C@H](COP(=O)(O)OP(=O)(O)O)[C@@H](O)[C@H]1O [ADP, Adenosine-5′-diphosphate] | did not |
| Thrombin | some signs of coagulation |

system: platelets; test: Selectively activated PRP and washed platelet releasates, PDGF-BB ELISA (Example 11); format: cell-based, human; conditions: PRP and WP preparations, Patients A and B
Procedure: Fresh whole blood (WB) was collected into tubes containing appropriate levels of Anti-coagulant Citrate Dextrose (ACD) to prevent platelet activation and coagulation. WB samples were then split into 4 conical tubes, 50 ml WB+ACD per tube. Red Blood Cells (RBCs) were then removed by centrifuging the tubes at 3500 rpm for 10 minutes in a clinical centrifuge. Supernatants (approximately 25 ml) with some RBCs remaining were pooled into 2 conical tubes and centrifuged again at 3500 rpm for 10 minutes. Clear supernatants (plasma) were then transferred to new 50 ml conical, and Buffy Coat (BC) with some RBCs put into 15 ml conicals. […]
PRP and WPs were aliquotted into 1 ml volumes, and 4 tubes of PRP and 4 tubes of WPs were used for preparation of activated releasates: (1) no selective activation, in which no platelet activator was added (2) PAR1 activation, in which 20 ul of 500 uM PAR1 Activating Peptide (PAR1 AP) (SFLLRN, SEQ ID: 40) was added, (3) PAR4 activation, in which 20 ul of 500 uM PAR4 Activating Peptide (PAR4 AP) (AYPGKF, SEQ ID: 44) was added, and (4) ADP activation, to which 20 ul of 2.5 mM ADP (Adenosine-5′-diphosphate) was added. […] PDGF-BB levels were then measured by ELISA using a Human PDGF-BB Quantikine ELISA Kit (R&D Systems).

| Molecule | Release of PDGF-BB compared between activators |
| --- | --- |
| SFLLRN [PAR1-AP] | greatest release of PDGF-BB |

biological target: T1, Collagenase (Matrix metalloproteinase I) (Homo sapiens, UniProt P03956); test: not given; conditions: cited from earlier work
T1 sequence (P03956 100-469): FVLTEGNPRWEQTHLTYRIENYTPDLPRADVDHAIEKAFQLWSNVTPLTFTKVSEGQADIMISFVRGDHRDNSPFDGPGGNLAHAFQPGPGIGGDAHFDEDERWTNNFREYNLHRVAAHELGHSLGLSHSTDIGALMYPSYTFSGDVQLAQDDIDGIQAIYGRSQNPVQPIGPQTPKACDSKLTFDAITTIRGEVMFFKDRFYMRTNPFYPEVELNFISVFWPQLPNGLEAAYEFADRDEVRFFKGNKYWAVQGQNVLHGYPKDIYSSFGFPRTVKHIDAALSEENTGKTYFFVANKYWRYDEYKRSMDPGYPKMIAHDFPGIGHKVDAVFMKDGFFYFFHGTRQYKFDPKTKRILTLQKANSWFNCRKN

| Molecule | kcat/Km relative to that of PQGIAG [%] |
| --- | --- |
| GPQGIAGQ | 100 |
| GPQGIASQ | 130 |
| GPQGIFGQ | >300 |
| GPQGIWGQ | >700 |
| GPQGRAGQ | <5 |
| GPQGVAGQ | 9 |
| GPVGIAGQ | 30 |
